Laboratory results published in paper PMC12472674 (Nanomaterials, 2025).

How the values were obtained:
[1] = Octanol–water partition coefficient (logP), shake-flask method; assay type: physicochemical; conditions: mutually saturated n-octanol/distilled water, 10 mg freeze-dried complex in 10 mL of each phase, stirred 400 rpm 24 h, 25 °C, HPLC-UV 230 nm, SMG 5.36 mg/mL, in the presence of Zn 0.5 mg/mL (Figure 2a), mean, n = 3
Description: The prepared SMG–PS–Zn complex suspensions were stored at −80 °C for 24 h, then freeze-dried using a lyophilizer (TFD 8501, Ilshinbiobase Co. Ltd., Dongducheon-si, Republic of Korea) at −80 °C and under a vacuum of <10 mTorr for 24 h to obtain dried samples. Then, the octanol–water partition coefficient (logP) was determined using the classical shake-flask method. Equal volumes of n-octanol and distilled water were mutually saturated by vigorous mixing and phase separation. Ten milligrams of freeze-dried complexes were placed in a 20 mL scintillation vial, followed by the addition of 10 mL each of the pre-saturated octanol and water phases. The vial was sealed and stirred at 400 rpm for 24 h to reach equilibrium. After incubation, the mixture was centrifuged at 13,000 rpm to separate the phases. The octanol phase was diluted 10-fold with methanol, and the aqueous phase was diluted 10-fold with the mobile phase. Drug concentrations in both phases were quantified using high-performance liquid chromatography (HPLC) analysis, and logP was calculated as the logarithm of the ratio of drug concentration in octanol to that in water.
The concentration of SMG in the complex suspension was quantified by reversed phase-HPLC, with minor modifications to previously reported methods. […] The limits of detection and quantification were 0.523 μg/mL and 1.569 μg/mL, respectively.

[2] = Solubility of SMG in release medium; assay type: physicochemical
[3] = healthy subjects, SC injection; cited from earlier work
From the text: SMG is a 31-amino acid peptide with a molecular weight of 4113.58 Da, structurally derived from native GLP-1 by substitutions at positions 8 (alanine to α-aminoisobutyric acid) and 34 (lysine to arginine), and acylation of the lysine residue at position 26 with a C18 fatty diacid chain. These modifications enhance albu ...

Which “logP (octanol/distilled water)” value [1] does the source give for Semaglutide [SMG] here?
The value was “approximately −4.7”.

What about the “Solubility in PBS (pH 7.4) release medium” value [2] of the same substance?
The value was 26.8 mg/mL.

And the Elimination half-life [3]?
The Elimination half-life was “approximately 7 days”.
